Measurements from patent publication US20250066460A1.

Target: complement C1s (UniProt P09871)
Assay: cell-based or functional assay

Chain of UniProt P09871 (P09871 16-688 limits assumed): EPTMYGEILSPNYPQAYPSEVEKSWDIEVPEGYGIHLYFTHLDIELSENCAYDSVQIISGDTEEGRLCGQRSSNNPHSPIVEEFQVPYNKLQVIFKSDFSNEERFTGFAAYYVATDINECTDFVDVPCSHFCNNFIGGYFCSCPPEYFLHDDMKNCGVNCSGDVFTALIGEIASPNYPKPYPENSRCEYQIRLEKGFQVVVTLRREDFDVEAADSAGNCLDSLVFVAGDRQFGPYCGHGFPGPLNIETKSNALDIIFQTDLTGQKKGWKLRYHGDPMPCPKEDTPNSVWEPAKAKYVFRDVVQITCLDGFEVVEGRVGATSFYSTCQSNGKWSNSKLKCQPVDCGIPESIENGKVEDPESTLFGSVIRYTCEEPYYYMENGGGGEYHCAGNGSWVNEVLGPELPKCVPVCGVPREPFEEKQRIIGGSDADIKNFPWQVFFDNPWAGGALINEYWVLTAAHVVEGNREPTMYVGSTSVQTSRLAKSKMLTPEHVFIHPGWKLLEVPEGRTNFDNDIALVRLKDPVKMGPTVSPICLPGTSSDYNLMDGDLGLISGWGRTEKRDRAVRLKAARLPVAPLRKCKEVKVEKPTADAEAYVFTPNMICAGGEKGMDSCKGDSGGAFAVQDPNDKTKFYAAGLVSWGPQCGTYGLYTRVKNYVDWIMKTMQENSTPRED

concentration blocking C3 fixation on sNF02.2 Schwann cells opsonized with MMN-patient serum (flow cytometry): 53 µg/mL
lowest concentration blocking C3 deposition on fixed iPSC-derived motor neurons (titration 3-200 µg/mL): 12 µg/mL
Substance: TNT009 (antibody)
